Results as given in patent US20260263521A1, “ANTI-CD200R1 ANTIBODY AND USE THEREOF” (AIMED BIO INC., priority 2023, published 2026).
Where a chain is given by its changes, count along the chain named.

B1: P001009: phage display anti-CD200R1 clone; VH SEQ ID NO: 79, VL SEQ ID NO: 94 (antibody, V domains shown)
VH: EVQLLESGGGLVQPGGSLRLSCAASGFTFSSYDMSWVRQAPGKGLEWVSWISHGGGSIYYADSVKGRFTISRDNSKNTLYLQMNSLRAEDTAVYYCARDAPAYSAPLFDYWGQGTLVTVSS
VL: QSVLTQPPSASGTPGQRVTISCSGSSSNIGNNAVNWYQQLPGTAPKLLIYYDSNRPSGVPDRFSGSKSGTSASLAISGLRSEDEADYYCAAWDDSLSGYVFGGGTKLTVL
B2: P001009v1: P001009 variant, LC S52 and LC S94 substituted with K and R; VH SEQ ID NO: 79 (antibody, V domains shown)
VH: B1 VH
VL: B1 VL with S53K, S95R

Legend:
[1] = target: T1, mouse CD200R1 protein (Mus musculus, UniProt Q9ES57); assay: ELISA binding to mouse CD200R1; details: concentrations up to 300 nM
T1 construct: purchased R&D systems 2554-CD
T1 sequence (Q9ES57 26-326): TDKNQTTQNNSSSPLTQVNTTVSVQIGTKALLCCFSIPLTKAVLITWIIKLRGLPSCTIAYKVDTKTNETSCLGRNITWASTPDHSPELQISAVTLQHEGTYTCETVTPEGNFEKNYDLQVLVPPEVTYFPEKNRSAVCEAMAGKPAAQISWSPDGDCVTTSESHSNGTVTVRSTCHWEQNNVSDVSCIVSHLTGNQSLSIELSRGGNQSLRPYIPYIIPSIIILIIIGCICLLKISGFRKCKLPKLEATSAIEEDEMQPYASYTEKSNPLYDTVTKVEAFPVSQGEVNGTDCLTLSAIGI
Procedure: (§1) 96-well plates were coated with human CD200R1 (R&D systems, 3414-CD) and mouse CD200R1 protein (R&D systems, 2554-CD) at a concentration of 2 μg/mL at 4° C. for 16 hours and then were blocked with 3% skim milk. The result was treated with the antibodies at concentrations of 300 nM, 60 nM, 12 nM, 2.4 nM, 0.48 nM, 0.096 nM, and 0.0192 nM, and reacted at room temperature for 2 hours.
(§2) The result was washed with PBST and distilled water, the samples were bound with a goat-derived HRP-conjugated anti-human antibody (Invitrogen, 31482, Goat anti-Human IgG F(ab′)2 Secondary Antibody, HRP) for 1 hour at room temperature, and then washed again with PBST and distilled water. Color was developed with a TMB substrate solution (Thermo Scientific, 34029, 1-Step™ TMB-ELISA Ultra Substrate Solution). The color reaction was stopped with stop solution (Invitrogen, SS04, ELISA Stop Solution). The absorbance was measured at an optical density of 450 nm.

[2] = target: T2, human CD200R1 (Homo sapiens, UniProt Q8TD46); assay: ELISA binding to human CD200R1; details: ELISA, Example 14
T2 sequence (Q8TD46 25-348): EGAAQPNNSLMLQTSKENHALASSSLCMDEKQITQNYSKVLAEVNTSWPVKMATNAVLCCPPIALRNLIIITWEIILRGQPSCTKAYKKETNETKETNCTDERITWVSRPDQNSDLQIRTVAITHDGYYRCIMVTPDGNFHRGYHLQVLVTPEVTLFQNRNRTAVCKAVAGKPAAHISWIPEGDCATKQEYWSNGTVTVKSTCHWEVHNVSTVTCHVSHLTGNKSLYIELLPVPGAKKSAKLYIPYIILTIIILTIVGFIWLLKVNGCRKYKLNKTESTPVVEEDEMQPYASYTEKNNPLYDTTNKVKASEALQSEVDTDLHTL
Procedure: as §1, §2

[3] = system: monkey CD200R1; assay: ELISA binding to monkey CD200R1; details: Example 14
Description: Therefore, the LC D51 and LC D92 sequences were not substituted during the optimization process. However, since LC N30 and LC N31 can play an important role in the specific binding of antibodies as paratopes, the sequences were substituted and optimized. Through rational design, LC S52 and LC S94 were substituted with K and R, respectively, to derive P001009v1, and LC S52 and LC D93 were substituted with K and R, respectively, to derive P001009v2. Further, P001009v3, in which LC N30 was substituted with S, and P001009v4, in which LC N31 was substituted with K, were derived and produced, and the binding ability to human, mouse, and monkey CD200R1 was analyzed by ELISA (FIG. 15). […] Both […] and variants thereof had very weak binding ability to mouse CD200R1 at concentrations up to 300 nM.

[4] = target: T3, CD200R1 on U937-CD200R overexpressing cells (Homo sapiens, UniProt Q8TD46); assay: Cell binding assay (flow cytometry), U937-CD200R1 cells; type: cell-based; details: serial dilution from 100 nM
T3 construct: host or cells: U937 (CRL-1593.2)
T3 sequence (Q8TD46 25-348): T2 sequence (Q8TD46 25-348)
Procedure: Binding ability was determined in HH, an endogenous T cell line with high CD200R1 expression, and two additional overexpressing cell lines: U937-CD200R overexpressing cells, generated by intranuclear injection of human CD200R1 CDNA into the monocytic cell line U937 (CRL-1593.2) (Source: UMC Utrecht, the Netherlands) and Jurkat-CD200R overexpressing cells, were also cells engineered using a similar method.
All cell lines were maintained in RPMI 1640 medium supplemented with 10% heat-inactivated FBS and 1% penicillin/streptomycin (P/S) and cell binding was determined in the same manner as in Example 12. Two additional wells were treated with 10 μl of mouse IgG1K (BD, #555751) and 5 μl of commercial CD200R1 antibody (Biolegend, #329308) to determine CD200R1 expression on the cell line surface for cell quality control.
Specific binding ability was determined using P001009 WT and antibody-optimized mutants, P001009v1, P001009v2, P001009v3, and P001009v4. The antibodies were serially diluted 10-fold from a maximum concentration of 100 nM to 10 nM, 1 nM, […], and were added to the pre-seeded cells. […] Using GraphPad Prism software, the EC50 was determined using a nonlinear graph model of log (agonist) vs. response-variable slope, as shown in Table 32.

[5] = system: contact dermatitis animal model; assay: Contact dermatitis animal model (oxazolone); type: in vivo, C57BL/6 mice; details: 20 mg/kg intravenously
Procedure: An in vivo contact dermatitis animal model was established to evaluate the anti-inflammatory efficacy of the anti-CD200R1 antibody. Ten-week-old female C57BL/6 mice were used for the contact dermatitis model. The animals were anesthetized and the abdominal hair thereof was removed. The following day, the shaved abdominal area was sensitized with 100 μL of 3% oxazolone in ethanol. Seven days after sensitization, P001009v1 was administered intravenously at a dose of 20 mg/kg. Four hours later, the thickness of both ears was measured. Then, both ears were sensitized with 2% oxazolone in 10 μL of ethanol. The thickness of both ears was measured again at 24 and 48 hours, and changes in ear edema thickness were recorded. Statistical analysis was performed using one-way ANOVA.

Molecule | binding ability to mouse CD200R1 [1] | binding ability to human CD200R1 compared to parent [2] | binding ability to monkey CD200R1 compared to parent [3] | binding ability to U937-CD200R1 [4] | anti-inflammatory efficacy after 48 hours ([5]; 48 hours) | anti-inflammatory response (ear edema thickness) ([5]; compared to control group)
B1 | very weak | – | – | – | – | –
B2 | – | improved | improved | exhibited binding ability | maintained | significant anti-inflammatory response
